Here are results for 14 molecules from patent publication US20240108738A1 (Bicycle, published 2024).

Numbered stars: 1 amine (or outer) side, 2 acyl side, 3 side chain; on linkers, the order of the positions; unused ones are H or OH. Bridge positions count the residues as written; N and C are the ends. Square brackets hold non-standard residues; d marks the D form. Ends that are not written are not given here. TATA = O=C(CC[*:1])N1CN(C(=O)CC[*:2])CN(C(=O)CC[*:3])C1; Trp(5-F) = N[C@@H](Cc1c[nH]c2ccc(F)cc12)C(=O)O; Trp(6-F) = N[C@@H](Cc1c[nH]c2cc(F)ccc12)C(=O)O; Trp(6-Me) = Cc1ccc2c(C[C@H](N)C(=O)O)c[nH]c2c1; Trp(7-Me) = Cc1cccc2c(C[C@H](N)C(=O)O)c[nH]c12; Trp(2-Me) = Cc1[nH]c2ccccc2c1C[C@H](N)C(=O)O; Nva(3-Et) = CCC(CC)[C@H](N)C(=O)O; aIle = CC[C@@H](C)[C@H](N)C(=O)O; Pip = O=C(O)[C@@H]1CCCCN1; Nle = CCCC[C@H](N)C(=O)O; Nva = CCC[C@H](N)C(=O)O; Dap = NC[C@H](N)C(=O)O; Aib = CC(C)(N)C(=O)O; GABA = NCCCC(=O)O

This experiment has as its target T1, Human NKp46 Fc tag (Acro Biosystems, NC1-H5257) (human, UniProt O76036 22-255).
T1 construct: bought; also called Fc-tagged human NKp46
As to the kind of experiment: SPR Method 1 and/or 2. The method, boiled down: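 Fc-tagged human NKp46 captured on anti-human IgG surface (500–1000 RU); compounds run in PBS-P+ with 2% DMSO at 25 °C, 50 μL/min, 60 s association, 400 s dissociation. Double-referenced, DMSO-corrected; KD from steady-state 1:1 fit, kinetic constants from kinetic 1:1 fit where appropriate.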

T1 sequence (O76036 22-255 limits assumed): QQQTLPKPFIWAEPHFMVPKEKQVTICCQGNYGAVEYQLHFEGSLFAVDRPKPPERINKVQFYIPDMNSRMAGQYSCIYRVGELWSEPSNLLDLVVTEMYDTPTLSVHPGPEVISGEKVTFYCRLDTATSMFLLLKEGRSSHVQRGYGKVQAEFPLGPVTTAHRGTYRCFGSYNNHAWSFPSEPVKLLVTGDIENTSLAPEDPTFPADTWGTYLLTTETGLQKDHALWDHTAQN

B1: BCY19706 (peptide)
peptide: ACNLQAPCMLTGK[aIle]CA-NH2
modifications: linker 2-8-15 via TATA; N-terminus assumed
SMILES: CC[C@@H](C)[C@@H]1NC(=O)[C@H](CCCCN)NC(=O)CNC(=O)[C@H]([C@@H](C)O)NC(=O)[C@H](CC(C)C)NC(=O)[C@H](CCSC)NC(=O)[C@@H]2CSCCC(=O)N3CN(CN(C3)C(=O)CCSC[C@@H](C(=O)N[C@@H](C)C(N)=O)NC1=O)C(=O)CCSC[C@H](NC(=O)[C@H](C)N)C(=O)N[C@@H](CC(N)=O)C(=O)N[C@@H](CC(C)C)C(=O)N[C@@H](CCC(N)=O)C(=O)N[C@@H](C)C(=O)N1CCC[C@H]1C(=O)N2
notes: scaffold TATA
By Kd is commonly meant the equilibrium constant for the complex coming apart. Read a low Kd as higher affinity. As to B1, the dissociation constant Kd was 1200 nM.

B2: BCY19710 (peptide)
peptide: ACNLQA[Nva]CMLTGKVCA-NH2
modifications: linker 2-8-15 via TATA; N-terminus assumed
SMILES: CCC[C@@H]1NC(=O)[C@H](C)NC(=O)[C@H](CCC(N)=O)NC(=O)[C@H](CC(C)C)NC(=O)[C@H](CC(N)=O)NC(=O)[C@@H](NC(=O)[C@H](C)N)CSCCC(=O)N2CN3CN(C2)C(=O)CCSC[C@@H](C(=O)N[C@@H](C)C(N)=O)NC(=O)[C@H](C(C)C)NC(=O)[C@H](CCCCN)NC(=O)CNC(=O)[C@H]([C@@H](C)O)NC(=O)[C@H](CC(C)C)NC(=O)[C@H](CCSC)NC(=O)[C@H](CSCCC3=O)NC1=O
notes: scaffold TATA
On to B2, for which the Kd was found to be 2360 nM. The result for ACDLTTHNCQ[Trp(5-F)]GICA-NH2 (linker 2-9-14 via TATA, scaffold TATA) [BCY19725] reads 457 nM.

[GABA]CNLQAPCMLTGKVCA-NH2 (linker 2-8-15 via TATA, scaffold TATA) [BCY19699]: the Kd turned out to be 2610 nM.

ACDLTTHNCQ[Trp(6-F)]GICA-NH2 (linker 2-9-14 via TATA, scaffold TATA) [BCY19724] gave a Kd of 1390 nM. Under ACDLTTHNCQ[Trp(2-Me)]GICA-NH2 (linker 2-9-14 via TATA, scaffold TATA) [BCY19721] stands 374 nM.

As to ACDLTTHNCQWGIC[Aib]-NH2 (linker 2-9-14 via TATA, scaffold TATA) [BCY19717], the Kd worked out at 598 nM.

B3: BCY19723 (peptide)
peptide: ACDLTTHNCQ[Trp(7-Me)]GICA-NH2
modifications: linker 2-9-14 via TATA; N-terminus assumed
SMILES: CC[C@H](C)[C@@H]1NC(=O)CNC(=O)[C@H](Cc2c[nH]c3c(C)cccc23)NC(=O)[C@H](CCC(N)=O)NC(=O)[C@@H]2CSCCC(=O)N3CN(CN(C3)C(=O)CCSC[C@@H](C(=O)N[C@@H](C)C(N)=O)NC1=O)C(=O)CCSC[C@H](NC(=O)[C@H](C)N)C(=O)N[C@@H](CC(=O)O)C(=O)N[C@@H](CC(C)C)C(=O)N[C@@H]([C@@H](C)O)C(=O)N[C@@H]([C@@H](C)O)C(=O)N[C@@H](Cc1c[nH]cn1)C(=O)N[C@@H](CC(N)=O)C(=O)N2
notes: scaffold TATA
Molecule B3 had a Kd of 2270 nM.

B4: BCY19697 (peptide)
peptide: [Dap]CNLQAPCMLTGKVCA-NH2
modifications: linker 2-8-15 via TATA; N-terminus assumed
SMILES: CSCC[C@@H]1NC(=O)[C@@H]2CSCCC(=O)N3CN(CN(C3)C(=O)CCSC[C@H](NC(=O)[C@@H](N)CN)C(=O)N[C@@H](CC(N)=O)C(=O)N[C@@H](CC(C)C)C(=O)N[C@@H](CCC(N)=O)C(=O)N[C@@H](C)C(=O)N3CCC[C@H]3C(=O)N2)C(=O)CCSC[C@@H](C(=O)N[C@@H](C)C(N)=O)NC(=O)[C@H](C(C)C)NC(=O)[C@H](CCCCN)NC(=O)CNC(=O)[C@H]([C@@H](C)O)NC(=O)[C@H](CC(C)C)NC1=O
notes: scaffold TATA
B4: binding was characterised by a dissociation constant (Kd) of 3730 nM.

B5: BCY19704 (peptide)
peptide: ACNLQAPCM[Nva]TGKVCA-NH2
modifications: linker 2-8-15 via TATA; N-terminus assumed
SMILES: CCC[C@@H]1NC(=O)[C@H](CCSC)NC(=O)[C@@H]2CSCCC(=O)N3CN(CN(C3)C(=O)CCSC[C@@H](C(=O)N[C@@H](C)C(N)=O)NC(=O)[C@H](C(C)C)NC(=O)[C@H](CCCCN)NC(=O)CNC(=O)[C@H]([C@@H](C)O)NC1=O)C(=O)CCSC[C@H](NC(=O)[C@H](C)N)C(=O)N[C@@H](CC(N)=O)C(=O)N[C@@H](CC(C)C)C(=O)N[C@@H](CCC(N)=O)C(=O)N[C@@H](C)C(=O)N1CCC[C@H]1C(=O)N2
notes: scaffold TATA
B5 displayed a Kd of 1620 nM. ACNLQAPCM[Nle]TGKVCA-NH2 (linker 2-8-15 via TATA, scaffold TATA) [BCY19703] gave a Kd of 1690 nM.

B6: BCY19722 (peptide)
peptide: ACDLTTHNCQ[Trp(6-Me)]GICA-NH2
modifications: linker 2-9-14 via TATA; N-terminus assumed
SMILES: CC[C@H](C)[C@@H]1NC(=O)CNC(=O)[C@H](Cc2c[nH]c3cc(C)ccc23)NC(=O)[C@H](CCC(N)=O)NC(=O)[C@@H]2CSCCC(=O)N3CN(CN(C3)C(=O)CCSC[C@@H](C(=O)N[C@@H](C)C(N)=O)NC1=O)C(=O)CCSC[C@H](NC(=O)[C@H](C)N)C(=O)N[C@@H](CC(=O)O)C(=O)N[C@@H](CC(C)C)C(=O)N[C@@H]([C@@H](C)O)C(=O)N[C@@H]([C@@H](C)O)C(=O)N[C@@H](Cc1c[nH]cn1)C(=O)N[C@@H](CC(N)=O)C(=O)N2
notes: scaffold TATA
As for B6, the Kd came out at 1460 nM.

B7: BCY19701 (peptide)
peptide: ACNLQA[Pip]CMLTGKVCA-NH2
modifications: linker 2-8-15 via TATA; N-terminus assumed
SMILES: CSCC[C@@H]1NC(=O)[C@@H]2CSCCC(=O)N3CN(CN(C3)C(=O)CCSC[C@@H](C(=O)N[C@@H](C)C(N)=O)NC(=O)[C@H](C(C)C)NC(=O)[C@H](CCCCN)NC(=O)CNC(=O)[C@H]([C@@H](C)O)NC(=O)[C@H](CC(C)C)NC1=O)C(=O)CCSC[C@H](NC(=O)[C@H](C)N)C(=O)N[C@@H](CC(N)=O)C(=O)N[C@@H](CC(C)C)C(=O)N[C@@H](CCC(N)=O)C(=O)N[C@@H](C)C(=O)N1CCCC[C@H]1C(=O)N2
notes: scaffold TATA
Consider B7, for which the Kd was 4030 nM.

B8: BCY19707 (peptide)
peptide: ACNLQAPCMLTGK[Nva(3-Et)]CA-NH2
modifications: linker 2-8-15 via TATA; N-terminus assumed
SMILES: CCC(CC)[C@@H]1NC(=O)[C@H](CCCCN)NC(=O)CNC(=O)[C@H]([C@@H](C)O)NC(=O)[C@H](CC(C)C)NC(=O)[C@H](CCSC)NC(=O)[C@@H]2CSCCC(=O)N3CN(CN(C3)C(=O)CCSC[C@@H](C(=O)N[C@@H](C)C(N)=O)NC1=O)C(=O)CCSC[C@H](NC(=O)[C@H](C)N)C(=O)N[C@@H](CC(N)=O)C(=O)N[C@@H](CC(C)C)C(=O)N[C@@H](CCC(N)=O)C(=O)N[C@@H](C)C(=O)N1CCC[C@H]1C(=O)N2
notes: scaffold TATA
Molecule B8 came in with a Kd of 1050 nM.
